From PMC4303269

Target: histone octamer

“nucleosome assembly protein 1 (yNap1) (from UniProt P25293 1-417) (natural protein)” showed a nucleosome formation fraction (package ratio, 15 min) of tethered 836-bp DNA in single-molecule TPM, 7.5 nM histone octamer pre-incubated with 15 nM yNap1, 150 mM NaCl (87.3 % without chaperone) of 70.5%.
